Data set [1] is described as follows: Fe2+ content (ICP-MS) and Fe2+ dependence of activity, dialysis against EDTA. Type of data set: biochemical. Particulars: relative to wild type = 100; after dialysis against 1 mM EDTA; 100 mM sodium citrate, 10 mM FeCl2. As for the experimental part: The UV-VIS absorption spectra of purified acidic enzymes are shown in FIG. 4, wherein the uninterrupted lines refer to Fe^2+ containing enzymes and the interrupted lines refer to enzymes after dialysis against EDTA containing buffer. The λ-max values found at ca. 572 nm correlate with the Fe^2+ content, i.e. disappear after incubation with EDTA or DTT for 24 h. ICP-MS analysis confirmed the presence of 0.82±0.10 mol Fe in EstFA, 0.34±0.08 mol Fe in αGluFA, […] and 0.63±0.09 mol Fe in LigFA.
In FIG. 5, relative activities of acidic enzymes with varying content of Fe^2+ are shown. For analysis, purified enzymes were incubated in 1 mM EDTA. At time intervals indicated, two aliquots were removed, one was used for hydrolysis of respective substrates, the other for ICP-MS analysis of Fe. For relative activities, activities before incubation with EDTA were used as 100% values.
When further investigating the dependence of the acidic enzymes according to the invention on Fe^2+, relative activity for EstFA, αGluFA and LigFA were investigated for their natural Fe^2+ content, e.g. wild-type, which was set to 100%, in comparison to the activity after dialysis against a 1 mM EDTA containing buffer.

A short description of data set [2]: pH and temperature dependence, stability and activity of recombinant acidic enzymes. The note with it: for enzymatic stability at elevated temperatures: FIG. 2, LigFA pH 3.0, EstFA and αGluFA pH 2.0 at 40 and 50° C., GlyFA1 and GlyFA2 pH 4.0 at 40° C.; for Optimum temperature: measured at optimum pH. Type of data set: biochemical. As for the experimental part: The acidic enzymes according to the invention were expressed in E. coli using the genomiccoding sequence for the respective enzyme from Ferroplasma acidiphilum, which are described in detail below. For enzymatic conversions, reaction conditions were in 100 mM sodium acetate buffer, 100 mM citrate buffer, 100 mM HEPES buffer for 2 minutes at 30° C., using p-nitrophenol propionate as the substrate for esterase, starch in the case of glycosidases, and HindIII digested λ DNA for ligase.
The activity was assayed using p-nitrophenol propionate as a substrate for esterase, starch for αGluFA and GlyFA1, GlyFA2, and HindIII digested λ DNA for LigFA.
The acidic enzymes according to the invention in vitro show similar elevated reaction temperatures. Substrates were as described for FIG. 2 above.
An overview of catalytic and molecular properties of acidic enzymes that were heterologously expressed in E. coli is given in the following Table III: […]

A short description of data set [3]: Transglucosylation of maltose catalyzed by αGluFA. Type of data set: biochemical. The source says:
αGluFA is also suitable for the transfer of glucosyl groups from maltose to selectively produce a maltotriose. […] The reaction was followed by HPLC measurements.

Substrate in data set [4]: CCC(=O)Oc1ccc([N+](=O)[O-])cc1
The data set can be described thus: EstFA hydrolysis of p-nitrophenol esters and triglycerides. Type of data set: biochemical, Ferroplasma acidiphilum. Particulars: other: EstFA expressed in E. coli. As for the experimental part: (§1) Hydrolysis of p-nitrophenol propionate was observed spectrophotometrically at 405 nm, optionally in and 96-well plates. The substrate specificity of acidic esterase EstFA obtainable from Ferroplasma acidiphilum was characterized using the heterologously expressed EstFA of Example 6 (expressed in E. coli), using p-nitrophenol esters and triglycerides as summarised in following Table IV:
(§2) The above substrate specificities were tested in 96-well plates, using 100 mM citrate buffer (pH 2.0) in the presence of 5 μg pure EstFA. For the substrate, the concentrations between 10 nM and 10 mM were chosen. Progress of the reaction was followed by spectrophotometry using p-nitrophenol propionate as an indicator. The reaction was stopped after 10 hours by adjusting the pH to 8.0 by adding sodium hydroxide from a 100 mM stock solution and phenol red (0.8 mM) as a pH indicator. Activities and selectivities were examined according to Mam Fai Lui et al. (2001). Ester hydrolysis of enantiomerically pure esters was measured colorimetrically in 5.0 mM EPPS buffer (N-(2-hydroxyethyl) piperazine-N′-(3′-propanesulfonic acid) at pH 8.0 and phenol red after termination of the reaction.

Substrate in data set [5]: CCCC(=O)Oc1ccc([N+](=O)[O-])cc1
The description is as above. The format is biochemical, Ferroplasma acidiphilum. Particulars: other: EstFA expressed in E. coli. As for the experimental part:
as §1, §2

Substrate in data set [6]: CC(=O)Oc1ccc([N+](=O)[O-])cc1
Described as above. The format is biochemical, Ferroplasma acidiphilum. Particulars: other: EstFA expressed in E. coli. As for the experimental part: as §1, §2

Substrate in data set [7]: CCCCCCCCCC(=O)Oc1ccc([N+](=O)[O-])cc1
The description is as above. Type of data set: biochemical, Ferroplasma acidiphilum. Particulars: other: EstFA expressed in E. coli. As for the experimental part:
as §1, §2

Substrate in data set [8]: CCCCCCCCCCCC(=O)Oc1ccc([N+](=O)[O-])cc1
The data set is described as above. The format is biochemical, Ferroplasma acidiphilum. The note with it: other: EstFA expressed in E. coli. As for the experimental part:
as §1, §2

Substrate in data set [9]: CCCC(=O)OCC(COC(=O)CCC)OC(=O)CCC
The data set is described as above. Type of data set: biochemical, Ferroplasma acidiphilum. The note with it: other: EstFA expressed in E. coli. As for the experimental part: as §1, §2

Substrate in data set [10]: CCCCCCCC(=O)Oc1ccc([N+](=O)[O-])cc1
Described as above. The format is biochemical, Ferroplasma acidiphilum. The note with it: other: EstFA expressed in E. coli. As for the experimental part:
as §1, §2

Setting [11] is: measured at optimum temperature.

The record followed here is patent publication US8003357B2, “Acidophilic enzymes” (Helmholtz-Zentrum Fuer Infektionsforschung GmbH, priority 2005, dated 2011).

B1: αGluFA: acidic glucosidase from Ferroplasma acidiphilum, 531 amino acids, Seq ID No. 11 (protein, listed as Ferroplasma acidiphilum)
chain: INSLYILNHKVIIAVAVSAILIAMVFAGANIPYPGYNPTDHLISGKHPISNVSEVPKNFTLSGNVSNSNNNLPLSGTITVSNSTMSRTFNTSSNGSYNITLPQGNYSISSSIPGFQNYSSTINLDSNKTQNISTPPATTIGNGINQVPGSTNVSTLVPYLNNSIMSGGLNTDNITGTFDKNITIDLGKKLNNTQFVVLMKLDGAVYSYNWVTNGSGMAKLFLKYSGNYTMSAYTLYYNSSVIHYNTANNDTARFNMTERITFISSVILQSAVPLHDNSSVANSTLTVKGGVFSVPSLSVNSNLTGTYYKYEVPVGFYNFAYSNAHYVSKNFGVDVTGNSTVNKTIDPYLISINIRNNTGNTFNYTLGSTFYSGNGIHMATSGITTLLVFHDGKIVYDNTILLTSANPYYQLNLTISNKNLTFNGIETDSTNLSIVYSGNVTSNFYIASLEFENFSTSATNGMIIISGAASGSYPLDSGLYTYNMSQSLPTSAGNLTIKLVYDNDSKVSTDGRMTVEVYGYNISTLGNYITE
modifications: CDS (1)..(1596) alpha glu FA, in Figure 11 designated sequence 5a
Consider B1, for which the “activity, +EDTA” value in data set [1] came to 5.40%. In [2], the “enzymatic stability at elevated temperatures” value is recorded as “good stability”. For the same molecule, in data set [2] (at 65° C.), the enzymatic activity retained entry is recorded as “approximately 50%”. Further, the “temperature up to which the enzyme was stable” value in data set [2] (for 60 minutes) is “up to 60 °C”. Also, the entries for the “Optimum pH” value in data set [2] (in the presence of Fe2+) and in data set [2] (setting [11]) were 2.0 and 2.5-3.0, respectively. The Optimum temperature in data set [2] is 60 °C. Moreover, in [2] (pH 1.5 to 3.9, incubation at 20° C. over 24 hours), the original activity retained result is listed as “more than 80%”. Also, in [3] (over the course of the reaction), the “percentage of transglucosylated maltose” value is “more than 70%”. The “product selectivity of synthesis” value in data set [3] (pH 3.0, up to 300 g/L maltotriose) is reported as “selectively synthesizes maltotriose”. In addition, the maltose in data set [3] (reaction time 5) was determined as 456 g/L; in data set [3] (reaction time 10) it was 402 g/L; in data set [3] (reaction time 20), 302 g/L; in data set [3] (reaction time 30), 199 g/L; in data set [3] (reaction time 60) it was 159 g/L; in [3] (reaction time 180), 111 g/L. Further, the maltotriose in [3] (reaction time 5) is recorded as 88 g/L; in data set [3] (reaction time 10), 122 g/L; in [3] (reaction time 20) it was 186 g/L; in data set [3] (reaction time 30), 248 g/L; in data set [3] (reaction time 60), 276 g/L; in data set [3] (reaction time 180), 304 g/L. The “percentage of maltose transglycosylated” value in data set [3] (reaction time 5) came to 70.3%; in data set [3] (reaction time 10), 72.7%; in [3] (reaction time 20), 74.5%; in [3] (reaction time 30) it was 73.3%; in data set [3] (reaction time 60) it was 74.7%; in [3] (reaction time 180) it was 74.0%. Besides, the glucose was found to be 59 g/L in data set [3] (reaction time 5, 600 g/L maltose, pH 3.0, 50° C.); 76 g/L in data set [3] (reaction time 10); 112 g/L in data set [3] (reaction time 20); 153 g/L in data set [3] (reaction time 30); 165 g/L in data set [3] (reaction time 60); 185 g/L in data set [3] (reaction time 180).

B2: EstFA: acidophilic, Fe2+ dependent esterase from Ferroplasma acidiphilum, 308 amino acids, Seq ID No. 6 (protein, listed as Ferroplasma acidiphilum)
chain: INSLYILNHKVIIAVAVSAILIAMVFAGANIPYPGYNPTDHLISGKHPISNVSEVPKNFTLSGNVSNSNNNLPLSGTITVSNSTMSRTFNTSSNGSYNITLPQGNYSISSSIPGFQNYSSTINLDSNKTQNISTPPATTIGNGINQVPGSTNVSTLVPYLNNSIMSGGLNTDNITGTFDKNITIDLGKKLNNTQFVVLMKLDGAVYSYNWVTNGSGMAKLFLKYSGNYTMSAYTLYYNSSVIHYNTANNDTARFNMTERITFISSVILQSAVPLHDNSSVANSTLTVKGGVFSVPSLSVNSNLTGTYYKYEVPVGFYNFAYSNAHYVSKNFGVDVTGNSTVNKTIDPYLISINIRNNTGNTFNYTLGSTFYSGNGIHMATSGITTLLVFHDGKIVYDNTILLTSANPYYQLNLTISNKNLTFNGIETDSTNLSIVYSGNVTSNFYIASLEFENFSTSATNGMIIISGAASGSYPLDSGLYTYNMSQSLPTSAGNLTIKLVYDNDSKVSTDGRMTVEVYGYNISTLGNYITE
modifications: PEPTIDE (1)..(531) alpha Glu FA
For B2, the “activity, +EDTA” value in [1] is 0.30%. Further, the “stability of purified enzyme” value in data set [2] (20 mM citrate buffer, pH 1.5, room temperature) is “stable”. Besides, in data set [2], the “enzymatic stability at elevated temperatures” value is “good stability” and the Optimum temperature was found to be 50 °C. For the same molecule, the “Optimum pH” value in [2] (setting [11]) was 2.0-3.5. The “stability at pH values above 5.0” value in data set [2] (pH above 5.0) is listed as “rapidly inactivated”.

B3: EstFA (Ferroplasma acidiphilum) (protein)
chain: MHLMNMVDPDFNSLIELSKSAGDMTKIEPAMLRNFLDESSLSSRGAPVEIKEIKDYKIKLDGRTLNARMYDDNNAKSAILYYHGGGFLFGNIETYDNYCRFLAKESGVKIISIEYRLAPEHKFPDAFNDAYDSFHYIAKKKKDFGIEGRIGVAGDSAGANLAAALCLKCRDGKTEMPAVQVLFYPSLAPDNFSRSFIEYSDNYVLTGKMIRYFGNMYSKNMQDLINPYFSPLVADDFSNLPPAIMVTNEYDPLRDPEETYVKKLREAGVRAVGIRGIGMIHGSATDFEVSDGARNIVKMVARIIPDYL
What is called Km is the substrate concentration at which the rate is half of its maximum. As usually defined, the kcat is the maximal rate divided by the concentration of active sites. For B3, the Michaelis constant (Km) in data set [4] is 0.20 ± 0.04 mg/mL; in data set [5], 1.75 ± 0.12 mg/mL; in [6], 0.39 ± 0.08 mg/mL; in data set [7] it was 4.30 ± 0.42 mg/mL; in data set [8] it was 4.41 ± 0.38 mg/mL; in data set [9], 1.75 ± 0.14 mg/mL. For the same molecule, in [10], the Michaelis-Menten constant (Km) is 1.68 ± 0.12 mg/mL. The kcat in [4] was determined as 1190 ± 25 s⁻¹; in data set [5], 2300 ± 30 s⁻¹; in data set [6], 860 ± 21 s⁻¹; in data set [7], 179 ± 4 s⁻¹; in data set [8], 120 ± 4 s⁻¹; in [9], 1890 ± 27 s⁻¹. In addition, the kcat in data set [10] was 239 ± 12 s⁻¹.
